For this assay, the target named is T1, AlkG (rubredoxin-2) (Pseudomonas putida, UniProt Q9WWW4).
T1 chain: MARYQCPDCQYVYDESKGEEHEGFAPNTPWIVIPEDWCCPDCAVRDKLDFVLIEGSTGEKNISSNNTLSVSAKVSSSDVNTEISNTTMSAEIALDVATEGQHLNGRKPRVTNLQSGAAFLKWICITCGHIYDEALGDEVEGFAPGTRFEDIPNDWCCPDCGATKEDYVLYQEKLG
Put plainly: electrochemical activity titration on AlkG-immobilized screen-printed carbon electrode (one-site and two-site binding model fits).

B1: AlkB (protein)
chain: MNGKSSVLDSAPEYVDKKKYFWILSTFWPATPMIGIWLANETGWGIFYGLVLAVWYGVLPLLDAMFGEDFNNPPEEVVEKLEKERYYRVLTYLTVPMHYAALIVSAWWVGTQSMSWFEIVALALSLGIVNGLALNTGHELGHKKEAFDRWMAKIVLAVVGYGHFFIEHNKGHHRDVATPMDPATSRMGENIYKFSTREIPGAFRRAWGLEEQRLSRRGQSVWSFDNEILQPMVITVVLYTLLLAFFGPKMLVFLPIQMAFGWWQLTSANYIEHYGLLREKMADGRYEHQKPHHSWNSNHIVSNLVLFHLQRHSDHHAHPTRSYQSLRDFPGLPALPTGYPGAFLMAMIPQWFRSVMDPKVVNWANGDLSKIQIEDSMRAEYIKKFTHNVGADDKRGATAVAS
Turning to B1, the Kd came out at 268 µM.

Values taken from PMC5566439 (2017).
